Consider 15 molecules from US20210145976A1 (ARO BIOTHERAPEUTICS, published 2021).

Assay [1] concerns the target T1, recombinant biotinylated CD71 extracellular domain (Sino Biologics) with an N-terminal 6His tag (human, UniProt P02786 89-760, biotinylated (sites not given)).
T1 construct: extracellular domain; also called hCD71; huCD71
The experiment in a line: screening ELISA. The protocol:
(§1) To screen for FN3 domains that specifically bind CD71, streptavidin-coated Maxisorp plates (Nunc catalog 436110) were blocked for 1 hour in Starting Block T20 (Pierce) and then coated with biotinylated CD71 (using same antigen as in panning) or negative controls (an unrelated Fc-fused recombinant protein and human serum albumin) for 1 hour. Plates were rinsed with TBST and diluted lysate was applied to plates for 1 hour. Following additional rinses, wells were treated with HRP-conjugated anti-V5 tag antibody (Abcam, ab1325), for 1 hour and then assayed with POD (Roche, 11582950001).
In general terms: In an ELISA, binding on a coated surface is turned into a signal by an enzyme label.

For assay [2], the target named is T1, recombinant biotinylated CD71 …. The experiment in a line: screening ELISA, ratio. Here is the method:
as §1

Assay [3] has as its target T2, CD71 on SK-BR-3 cells (human, UniProt P02786 1-760). Put plainly: cell-based or functional assay.
Assay [4] has as its target T2, CD71 on SK-BR-3 cells. The experiment in a line: cell-based or functional assay. The source holds these as a separate data set.

T2 sequence (P02786 whole entry): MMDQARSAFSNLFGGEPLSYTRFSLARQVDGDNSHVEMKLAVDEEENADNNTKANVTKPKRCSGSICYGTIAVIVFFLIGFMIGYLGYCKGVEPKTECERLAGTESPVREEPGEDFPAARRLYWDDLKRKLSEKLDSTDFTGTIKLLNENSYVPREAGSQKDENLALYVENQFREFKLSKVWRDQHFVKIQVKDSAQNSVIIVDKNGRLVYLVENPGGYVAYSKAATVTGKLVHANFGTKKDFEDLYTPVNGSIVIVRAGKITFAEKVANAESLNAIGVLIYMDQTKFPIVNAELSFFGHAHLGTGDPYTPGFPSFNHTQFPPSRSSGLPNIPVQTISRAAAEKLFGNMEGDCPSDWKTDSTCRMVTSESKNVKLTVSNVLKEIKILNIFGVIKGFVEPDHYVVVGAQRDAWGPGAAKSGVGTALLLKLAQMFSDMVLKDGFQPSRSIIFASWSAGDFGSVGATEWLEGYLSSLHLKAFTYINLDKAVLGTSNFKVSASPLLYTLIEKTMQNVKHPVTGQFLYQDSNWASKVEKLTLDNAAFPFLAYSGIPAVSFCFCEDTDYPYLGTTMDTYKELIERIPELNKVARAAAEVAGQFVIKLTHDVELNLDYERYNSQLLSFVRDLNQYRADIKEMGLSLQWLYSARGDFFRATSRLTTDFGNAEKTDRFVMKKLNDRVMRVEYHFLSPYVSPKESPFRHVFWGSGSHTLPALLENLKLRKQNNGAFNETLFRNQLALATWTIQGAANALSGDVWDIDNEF
T1 sequence (P02786 other isoform, or with tags, fused parts or gaps): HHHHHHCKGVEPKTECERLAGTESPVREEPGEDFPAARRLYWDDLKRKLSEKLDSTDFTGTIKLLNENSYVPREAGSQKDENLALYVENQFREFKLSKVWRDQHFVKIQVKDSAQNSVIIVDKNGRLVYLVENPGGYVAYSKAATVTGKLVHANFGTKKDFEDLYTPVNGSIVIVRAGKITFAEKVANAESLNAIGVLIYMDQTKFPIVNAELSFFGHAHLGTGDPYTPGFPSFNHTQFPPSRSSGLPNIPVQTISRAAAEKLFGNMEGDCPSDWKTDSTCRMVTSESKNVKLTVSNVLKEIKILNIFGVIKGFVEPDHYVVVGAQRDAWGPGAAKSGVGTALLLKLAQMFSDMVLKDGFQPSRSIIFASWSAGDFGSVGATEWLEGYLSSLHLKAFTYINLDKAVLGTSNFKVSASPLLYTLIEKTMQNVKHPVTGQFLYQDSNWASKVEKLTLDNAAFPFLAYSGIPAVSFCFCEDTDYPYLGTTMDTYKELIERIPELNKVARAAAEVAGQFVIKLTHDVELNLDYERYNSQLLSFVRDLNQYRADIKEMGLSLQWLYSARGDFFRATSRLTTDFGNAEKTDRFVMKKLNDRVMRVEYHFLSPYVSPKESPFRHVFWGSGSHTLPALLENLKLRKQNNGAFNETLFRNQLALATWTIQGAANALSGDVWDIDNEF

B1: SEQ ID NO 33 (designed binder)
chain: MLPAPKNLVVSRVTEDSARLSWTAPDAAFDSFTIQYEELTTVGEAIYLRVPGSERSYDLTGLKPGTEYVVWIEGVKGGLRSNPLGAAFTT
notes: FN3 domain
B1: the hCD71 in assay [1] is 518000. The huCD71/Fc in assay [2] was 46.6. Also, the “IC50, SKBR-3 cell viability, MMAF conjugate” value (shortened to “IC50, SKBR-3 cell viability”) in assay [3] was 3.27 nM. In assay [4], the “IC50, SK-BR3 viability, MMAF conjugate, no competitor” value (“IC50 … no competitor” for short) was 4.4 nM and the “IC50, SK-BR3 viability, MMAF conjugate, with 0.6 uM holo-human transferrin” value (shortened to “IC50 … with 0.6 uM holo-human transferrin”) was around 200 nM.

B2: SEQ ID NO 39 (designed binder)
chain: MLPAPKNLVVSRVTEDSARLSWTAPDAAFDSFDIDYREWWTLGEAIVLTVPGSERSYDLTGLKPGTEYYVNIQGVKGGLRSYPLSAIFTT
notes: FN3 domain
Regarding B2, the hCD71 in assay [1] is 507000. Besides, the huCD71/Fc in assay [2] was found to be 122. Besides, in assay [3], the “IC50, SKBR-3 cell viability” value is 0.52 nM. Further, in assay [4], the “IC50 … no competitor” value amounted to 1.2 nM and the “IC50 … with 0.6 uM holo-human transferrin” value came out at 31.1 nM.

B3: SEQ ID NO 43 (designed binder)
chain: MLPAPKNLVVSRVTEDSARLSWTAPDAAFDSFYIEYYESYPGGEAIVLTVPGSERSYDLTGLKPGTEYDVYIYGVKGGYWSRPLSAIFTT
notes: FN3 domain
Consider B3, for which, in assay [1], the hCD71 worked out at 1.62e+06. In assay [2], the huCD71/Fc stood at 199. In addition, the “IC50, SKBR-3 cell viability” value in assay [3] came to 0.069 nM. Besides, in assay [4], the “IC50 … no competitor” value stood at 0.97 nM and the “IC50 … with 0.6 uM holo-human transferrin” value was around 80 nM.

B4: SEQ ID NO 48 (designed binder)
chain: MLPAPKNLVVSRVTEDSARLSWTAPDAAFDSFVIEYFEQFNLGEAIVLTVPGSERSYDLTGLKPGTEYWVGIYGVKGGWLSHPLSAIFTT
notes: FN3 domain
Take B4: the hCD71 in assay [1] was found to be 943000. For the same molecule, the huCD71/Fc in assay [2] was 337. In assay [3], the “IC50, SKBR-3 cell viability” value was found to be 0.42 nM. In assay [4], the “IC50 … no competitor” value amounted to 1.3 nM and the “IC50 … with 0.6 uM holo-human transferrin” value is around 70 nM.

B5: SEQ ID NO 46 (designed binder)
chain: MLPAPKNLVVSRVTEDSARLSWTAPDAAFDSFTIEYFEFTGTGEAIVLTVPGSERSYDLTGLKPGTEYYVSIYGVKGGLLSAPLSAIFTT
notes: FN3 domain
With B5, the hCD71 in assay [1] was 113000. Also, in assay [2], the huCD71/Fc amounted to 37. In addition, in assay [3], the “IC50, SKBR-3 cell viability” value came to 2.69 nM. Besides, in assay [4], the “IC50 … no competitor” value turned out to be 3 nM and the “IC50 … with 0.6 uM holo-human transferrin” value is around 100 nM.

B6: SEQ ID NO 53 (designed binder)
chain: MLPAPKNLVVSRVTEDSARLSWTAPDAAFDSFFISYIEWWDLGEAIVLTVPGSERSYDLTGLKPGTEYHVEIFGVKGGTQSYPLSAIFTT
notes: FN3 domain
In the case of B6, in assay [1], the hCD71 was 1.01e+06. Moreover, in assay [2], the huCD71/Fc is 110. In assay [3], the “IC50, SKBR-3 cell viability” value is 0.07 nM. Further, in assay [4], the “IC50 … no competitor” value came out at 3.6 nM and the “IC50 … with 0.6 uM holo-human transferrin” value is around 90 nM.

B7: SEQ ID NO 45 (designed binder)
chain: MLPAPKNLVVSRVTEDSARLSWTAPDAAFDSFAIYYLESYPEGEAIVLTVPGSERSYDLTGLKPGTEYWVGIDGVKGGTWSSPLSAIFTT
notes: FN3 domain
Turning to B7, the hCD71 in assay [1] stood at 1.93e+06. In addition, in assay [2], the huCD71/Fc was 669. For the same molecule, in assay [3], the “IC50, SKBR-3 cell viability” value is 8.3 nM. Besides, in assay [4], the “IC50 … no competitor” value is 0.05 nM and the “IC50 … with 0.6 uM holo-human transferrin” value was 0.9 nM.

B8: SEQ ID NO 56 (designed binder)
chain: MLPAPKNLVVSRVTEDSARLSWTAPDAAFDSFVIEYFEALEGGEAIVLTVPGSERSYDLTGLKPGTEYFVGIYGVKGGPLSKPLSAIFTT
notes: FN3 domain
Consider B8, for which the hCD71 in assay [1] was 1.13e+07. Also, the huCD71/Fc in assay [2] stood at 1510. In addition, the “IC50, SKBR-3 cell viability” value in assay [3] is 0.24 nM. In addition, in assay [4], the “IC50 … no competitor” value turned out to be 0.35 nM and the “IC50 … with 0.6 uM holo-human transferrin” value was 14.7 nM.

B9: SEQ ID NO 60 (designed binder)
chain: MLPAPKNLVVSRVTEDSARLSWTAPDAAFDSFTIWYAEAIGHGEAIVLTVPGSERSYDLTGLKPGTEYWVDIWGVKGGQQSKPLSAIFTT
notes: FN3 domain
As to B9, in assay [1], the hCD71 is 4.48e+06. Besides, the huCD71/Fc in assay [2] is 691. Also, in assay [3], the “IC50, SKBR-3 cell viability” value stood at 0.45 nM. In assay [4], the “IC50 … no competitor” value amounted to 0.21 nM and the “IC50 … with 0.6 uM holo-human transferrin” value was found to be 14.4 nM.

B10: SEQ ID NO 55 (designed binder)
chain: MLPAPKNLVVSRVTEDSARLSWTAPDAAFDSFIIEYWEFVGYGEAIVLTVPGSERSYDLTGLKPGTEYWVAIYGVKGGDLSKPLSAIFTT
notes: FN3 domain
For B10, the hCD71 in assay [1] worked out at 1.11e+07. The huCD71/Fc in assay [2] came out at 1440. Also, the “IC50, SKBR-3 cell viability” value in assay [3] turned out to be 0.026 nM. Further, in assay [4], the “IC50 … no competitor” value amounted to 0.15 nM and the “IC50 … with 0.6 uM holo-human transferrin” value was 5.5 nM.

B11: SEQ ID NO 41 (designed binder)
chain: MLPAPKNLVISRVTEDSARLSWTAPDAAFDSFFIYYIESYPAGEAIVLTVPGSERSYDLTGLKPGTEYWVGIDGVKGGRWSTPLSAIFTT
notes: FN3 domain
Turning to B11, in assay [1], the hCD71 came to 4.27e+06. The huCD71/Fc in assay [2] was 423. In addition, the “IC50, SKBR-3 cell viability” value in assay [3] amounted to 4.7 nM. Also, in assay [4], the “IC50 … no competitor” value was 0.01 nM and the “IC50 … with 0.6 uM holo-human transferrin” value is 0.5 nM.

B12: SEQ ID NO 42 (designed binder)
chain: MLPAPKNLVVSRVTEDSARLSWTAPDAAFDSFTIEYYESFYGGEAIVLTVPGSERSYDLTGLKPGTEYYVSIYGVKGGWLSRPLSAIFTT
notes: FN3 domain
Turning to B12, in assay [1], the hCD71 stood at 2.83e+06. The huCD71/Fc in assay [2] stood at 478. Further, the “IC50, SKBR-3 cell viability” value in assay [3] came to 0.19 nM. Also, in assay [4], the “IC50 … no competitor” value was 2.4 nM and the “IC50 … with 0.6 uM holo-human transferrin” value is around 70 nM.

B13: SEQ ID NO 57 (designed binder)
chain: MLPAPKNLVVSRVTEDSARLSWTAPDAAFDSFSIKYLEWWQDGEAIVLTVPGSERSYDLTGLKPGTEYYVHIAGVKGGYRSYPLSAIFTT
notes: FN3 domain
B13: in assay [1], the hCD71 came out at 1.9e+06. In addition, in assay [2], the huCD71/Fc was 113. Also, in assay [3], the “IC50, SKBR-3 cell viability” value came out at 3.13 nM. In assay [4], the “IC50 … no competitor” value stood at 0.38 nM and the “IC50 … with 0.6 uM holo-human transferrin” value was 5.3 nM.

B14: SEQ ID NO 40 (designed binder)
chain: MLPAPKNLVVSRVTEDSARLSWTAPDAAFDSFVIEYWEYVGHGEAIVLTVPGSERSYDLTGLKPGTEYSVGIYGVKGGSLSRPLSAIFTT
notes: FN3 domain
As to B14, the hCD71 in assay [1] turned out to be 220000. Also, the huCD71/Fc in assay [2] worked out at 74.4. For the same molecule, the “IC50, SKBR-3 cell viability” value in assay [3] came out at 3 nM. Further, in assay [4], the “IC50 … no competitor” value worked out at 2.2 nM and the “IC50 … with 0.6 uM holo-human transferrin” value is around 100 nM.

B15: SEQ ID NO 47 (designed binder)
chain: MLPAPKNLVVSRVTEDSARLSWTAPDAAFDSFTIWYAEALGDGEAIVLTVPGSERSYDLTGLKPGTEYFVDIYGVKGGFWSLPLSAIFTT
notes: FN3 domain
Take B15: the hCD71 in assay [1] was found to be 265000. The huCD71/Fc in assay [2] was determined as 50.9. In addition, the “IC50, SKBR-3 cell viability” value in assay [3] was 5.9 nM. In assay [4], the “IC50 … no competitor” value turned out to be 1.6 nM and the “IC50 … with 0.6 uM holo-human transferrin” value is around 85 nM.
